Values quoted from earlier work in paper PMC3721222.
Read-outs that look alike come from different tables or passages of the source.

How the values were obtained:
Trypsin (Bos taurus) [1] = molecular target: Trypsin (Bos taurus) (UniProt P00760)
[2] = molecular target: Neutrophil elastase (Homo sapiens) (UniProt P08246)
[3] = molecular target: Subtilisin A (Bacillus licheniformis) (UniProt P00780)
[4] = molecular target: Chymotrypsin (Bos taurus) (UniProt P00766)
[5] = molecular target: Pancreatic elastase (Sus scrofa) (UniProt P00772)
[6] = molecular target: Proteinase K (Parengyodontium album) (UniProt P06873)
[7] = molecular target: Chymotrypsin (Bos taurus) (UniProt P00766); remark: listed apart in the source
Thrombin (Homo sapiens) = Thrombin (Homo sapiens) (UniProt P00734)
Trypsin (Bos taurus) [8] = molecular target: Trypsin (Bos taurus) (UniProt P00760); remark: listed apart in the source
Trypsin (Bos taurus) [9] = molecular target: Trypsin (Bos taurus) (UniProt P00760); remark: listed apart in the source
[10] = molecular target: Chymotrypsin (Bos taurus) (UniProt P00766); remark: listed apart in the source
Trypsin (Bos taurus) [11] = molecular target: Trypsin (Bos taurus) (UniProt P00760); remark: listed apart in the source
[12] = molecular target: Chymotrypsin (Bos taurus) (UniProt P00766); remark: listed apart in the source
Plasmin (Homo sapiens) [13] = molecular target: Plasmin (Homo sapiens) (UniProt P00747)
[14] = molecular target: Chymotrypsin (Bos taurus) (UniProt P00766); remark: listed apart in the source
Trypsin (Bos taurus) [15] = molecular target: Trypsin (Bos taurus) (UniProt P00760); remark: listed apart in the source
Trypsin (Bos taurus) [16] = molecular target: Trypsin (Bos taurus) (UniProt P00760); remark: listed apart in the source
Plasmin (Homo sapiens) [17] = molecular target: Plasmin (Homo sapiens) (UniProt P00747); remark: listed apart in the source
[18] = molecular target: Plasma kallikrein (Homo sapiens) (UniProt P03952)
[19] = molecular target: alpha-Factor XIIa (Homo sapiens) (UniProt P00748)
Plasmin (Homo sapiens) [20] = molecular target: Plasmin (Homo sapiens) (UniProt P00747); remark: listed apart in the source
Trypsin (Bos taurus) [21] = molecular target: Trypsin (Bos taurus) (UniProt P00760); remark: listed apart in the source
Trypsin (Bos taurus) [22] = molecular target: Trypsin (Bos taurus) (UniProt P00760); remark: listed apart in the source
Kv1.1 = Kv1.1 (UniProt Q09470)
Kv1.2 = Kv1.2 (UniProt P16389)
Kv1.6 = Kv1.6 (UniProt P17658)
UniProt P17658, sequence (P17658 whole entry): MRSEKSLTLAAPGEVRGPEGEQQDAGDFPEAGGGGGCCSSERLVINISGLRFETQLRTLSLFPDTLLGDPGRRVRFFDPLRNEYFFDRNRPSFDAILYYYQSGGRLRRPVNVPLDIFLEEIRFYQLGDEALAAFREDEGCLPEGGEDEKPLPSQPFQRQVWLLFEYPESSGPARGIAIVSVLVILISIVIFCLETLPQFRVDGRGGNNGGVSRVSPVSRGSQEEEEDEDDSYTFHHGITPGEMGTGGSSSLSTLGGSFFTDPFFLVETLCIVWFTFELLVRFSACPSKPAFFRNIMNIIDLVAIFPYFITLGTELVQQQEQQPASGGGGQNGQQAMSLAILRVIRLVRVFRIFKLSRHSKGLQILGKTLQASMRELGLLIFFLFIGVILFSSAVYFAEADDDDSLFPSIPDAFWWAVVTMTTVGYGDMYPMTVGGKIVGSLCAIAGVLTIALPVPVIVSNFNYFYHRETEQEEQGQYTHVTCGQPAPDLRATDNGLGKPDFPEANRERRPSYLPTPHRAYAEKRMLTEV

UniProt P00747, sequence (P00747 581-810): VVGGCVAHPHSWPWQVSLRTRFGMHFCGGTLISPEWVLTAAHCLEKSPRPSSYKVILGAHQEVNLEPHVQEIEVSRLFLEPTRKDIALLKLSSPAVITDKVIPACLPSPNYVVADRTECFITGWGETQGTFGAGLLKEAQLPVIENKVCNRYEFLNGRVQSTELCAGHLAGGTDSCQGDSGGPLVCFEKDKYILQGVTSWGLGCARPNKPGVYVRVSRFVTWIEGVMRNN
UniProt P00760, sequence (P00760 149-246): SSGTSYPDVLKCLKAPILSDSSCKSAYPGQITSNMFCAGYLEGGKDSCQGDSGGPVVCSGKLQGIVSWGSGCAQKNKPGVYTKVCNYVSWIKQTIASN
UniProt P06873, sequence (P06873 106-384): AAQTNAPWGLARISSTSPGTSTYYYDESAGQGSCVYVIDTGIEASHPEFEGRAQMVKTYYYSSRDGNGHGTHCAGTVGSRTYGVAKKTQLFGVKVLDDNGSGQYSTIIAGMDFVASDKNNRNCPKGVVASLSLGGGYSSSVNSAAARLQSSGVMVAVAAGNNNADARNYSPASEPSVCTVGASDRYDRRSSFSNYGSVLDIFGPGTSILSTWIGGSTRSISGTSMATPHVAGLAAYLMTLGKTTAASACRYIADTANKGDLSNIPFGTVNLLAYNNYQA
UniProt P00772, sequence (P00772 27-266): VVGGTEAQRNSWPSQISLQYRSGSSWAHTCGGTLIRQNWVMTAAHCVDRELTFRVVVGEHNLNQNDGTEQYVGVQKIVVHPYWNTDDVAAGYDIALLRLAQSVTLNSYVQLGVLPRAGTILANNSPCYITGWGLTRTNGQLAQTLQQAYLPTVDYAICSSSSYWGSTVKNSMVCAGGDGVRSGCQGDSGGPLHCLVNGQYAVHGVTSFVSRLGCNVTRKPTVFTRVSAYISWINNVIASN
UniProt P00748, sequence (P00748 20-372, chain 1 of 2): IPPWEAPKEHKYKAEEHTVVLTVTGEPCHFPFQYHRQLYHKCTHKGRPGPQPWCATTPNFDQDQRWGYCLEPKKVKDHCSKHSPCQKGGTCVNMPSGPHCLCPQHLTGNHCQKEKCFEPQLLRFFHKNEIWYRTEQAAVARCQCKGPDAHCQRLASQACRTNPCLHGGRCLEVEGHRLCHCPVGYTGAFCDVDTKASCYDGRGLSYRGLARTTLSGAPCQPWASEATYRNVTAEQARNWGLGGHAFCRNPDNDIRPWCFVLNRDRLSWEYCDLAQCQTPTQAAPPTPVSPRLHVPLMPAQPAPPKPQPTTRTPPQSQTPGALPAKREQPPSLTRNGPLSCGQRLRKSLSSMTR
UniProt P00748, sequence (P00748 373-615, chain 2 of 2): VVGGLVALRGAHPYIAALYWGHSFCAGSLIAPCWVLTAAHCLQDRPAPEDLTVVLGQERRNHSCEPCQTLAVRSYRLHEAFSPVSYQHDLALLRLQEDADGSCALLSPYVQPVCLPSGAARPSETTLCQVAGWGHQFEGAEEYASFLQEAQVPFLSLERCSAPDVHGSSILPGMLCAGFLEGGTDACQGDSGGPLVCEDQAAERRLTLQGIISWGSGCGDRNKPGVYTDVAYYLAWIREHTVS
UniProt Q09470, sequence (Q09470 whole entry): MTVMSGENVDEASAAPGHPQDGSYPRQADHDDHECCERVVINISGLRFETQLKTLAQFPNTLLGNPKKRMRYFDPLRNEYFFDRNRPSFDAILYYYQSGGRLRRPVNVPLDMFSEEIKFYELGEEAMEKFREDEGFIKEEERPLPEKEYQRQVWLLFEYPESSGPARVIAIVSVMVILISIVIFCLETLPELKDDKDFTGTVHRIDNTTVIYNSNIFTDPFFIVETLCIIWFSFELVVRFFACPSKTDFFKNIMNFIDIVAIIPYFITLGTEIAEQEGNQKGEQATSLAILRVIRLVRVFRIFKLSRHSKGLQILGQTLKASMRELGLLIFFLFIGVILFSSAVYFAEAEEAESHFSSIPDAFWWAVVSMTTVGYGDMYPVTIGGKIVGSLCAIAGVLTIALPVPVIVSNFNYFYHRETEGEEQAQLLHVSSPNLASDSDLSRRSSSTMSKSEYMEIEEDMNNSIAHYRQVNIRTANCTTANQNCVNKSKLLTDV
UniProt P00780, sequence (P00780 106-379): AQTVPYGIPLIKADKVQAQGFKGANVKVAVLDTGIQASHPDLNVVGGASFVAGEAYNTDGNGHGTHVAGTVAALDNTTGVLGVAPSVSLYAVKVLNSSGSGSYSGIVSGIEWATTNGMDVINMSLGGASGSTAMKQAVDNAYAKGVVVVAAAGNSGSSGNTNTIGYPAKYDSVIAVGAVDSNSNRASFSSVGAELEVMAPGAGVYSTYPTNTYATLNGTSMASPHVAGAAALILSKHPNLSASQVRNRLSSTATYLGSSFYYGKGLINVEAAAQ
UniProt P08246, sequence (P08246 30-267): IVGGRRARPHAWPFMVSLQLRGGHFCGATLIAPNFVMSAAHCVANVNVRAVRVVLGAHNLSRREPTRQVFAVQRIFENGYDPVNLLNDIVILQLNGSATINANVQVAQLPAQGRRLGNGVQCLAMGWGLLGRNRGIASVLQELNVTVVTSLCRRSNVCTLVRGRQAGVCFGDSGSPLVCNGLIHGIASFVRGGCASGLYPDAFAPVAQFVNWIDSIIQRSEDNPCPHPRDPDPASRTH
UniProt P16389, sequence (P16389 whole entry): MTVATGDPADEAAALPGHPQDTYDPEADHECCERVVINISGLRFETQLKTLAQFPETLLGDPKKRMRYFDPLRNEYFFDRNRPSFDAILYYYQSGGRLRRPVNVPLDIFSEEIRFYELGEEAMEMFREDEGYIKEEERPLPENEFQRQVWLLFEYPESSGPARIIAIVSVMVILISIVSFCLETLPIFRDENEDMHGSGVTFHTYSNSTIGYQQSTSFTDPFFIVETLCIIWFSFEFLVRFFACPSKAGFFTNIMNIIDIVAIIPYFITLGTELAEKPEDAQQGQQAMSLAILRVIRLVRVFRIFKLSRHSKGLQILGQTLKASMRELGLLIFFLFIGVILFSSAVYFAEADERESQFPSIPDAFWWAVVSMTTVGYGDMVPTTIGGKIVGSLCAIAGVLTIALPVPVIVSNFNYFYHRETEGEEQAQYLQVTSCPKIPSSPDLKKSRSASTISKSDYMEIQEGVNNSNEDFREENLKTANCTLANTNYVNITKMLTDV
UniProt P03952, sequence (P03952 391-638): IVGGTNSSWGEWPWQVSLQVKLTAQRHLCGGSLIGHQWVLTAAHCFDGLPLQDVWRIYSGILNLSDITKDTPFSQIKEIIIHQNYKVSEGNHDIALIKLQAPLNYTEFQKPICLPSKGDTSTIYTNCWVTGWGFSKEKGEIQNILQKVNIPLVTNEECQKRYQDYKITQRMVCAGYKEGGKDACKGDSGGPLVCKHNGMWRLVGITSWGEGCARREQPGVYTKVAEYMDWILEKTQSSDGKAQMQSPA

Question: Which Kd (Trypsin (Bos taurus) [1]) does the source give for APEKTx1 (from UniProt P86862) here?
Answer: 124 nM

Question: What does the source list for AvCI (from UniProt L7X735)?
Answer: Ki [2]: 8.74 nM; Ki [3]: 20.5 nM; Ki [4]: 49.9 nM; Ki [5]: 11.3 nM; Ki [6]: 65.4 nM

Question: With BBPTI-1 (from UniProt A8Y7P1) as the substance, how does the Ki [7] read?
Answer: 4.77 nM

Question: With Bicolin (from UniProt C0LNR2) as the substance, how does the Ki (Thrombin (Homo sapiens)) read?
Answer: 26000 nM

Question: And the Ki (Trypsin (Bos taurus) [8])?
Answer: 550 nM

Question: With HWTX-XI (from UniProt P68425) as the substance, how does the Kd (Trypsin (Bos taurus) [9]) read?
Answer: 0.23 nM

Question: Which results are given for “OH-TCI (recombinant) (from UniProt B6RLX2)”?
Answer: Ki [10]: 84.6 nM; Ki (Trypsin (Bos taurus) [11]): 391 nM

Question: For Oh11-1 (from UniProt P82966), which Ki [12] is on record?
Answer: 3520 nM

Question: Which results are given for Pr-mulgin 2 (from UniProt E7FL12)?
Answer: Ki (Plasmin (Homo sapiens) [13]): 40 nM; Ki [14]: 40 nM; Ki (Trypsin (Bos taurus) [15]): 5 nM

Question: What does the source list for Pr-mulgin 3 (from UniProt E7FL13)?
Answer: Ki (Trypsin (Bos taurus) [16]): 5 nM; Ki (Plasmin (Homo sapiens) [17]): 100 nM

Question: For TSPI (from UniProt B7S4N9), which Ki [18] is on record?
Answer: 0.057 nM

Question: And the Ki [19]?
Answer: 2380 nM

Question: Which Ki (Plasmin (Homo sapiens) [20]) does the source give for Textilinin-1 (from UniProt Q90WA1) here?
Answer: 0.49 nM

Question: What about the Ki (Trypsin (Bos taurus) [21]) of the same substance?
Answer: 0.76 nM

Question: For rBmKTT-3 (from UniProt P0DJ47), which Kd (Trypsin (Bos taurus) [22]) is on record?
Answer: 760 nM

Question: Which Kd (Kv1.1) does the source give for α-dendrotoxin (from UniProt P00980) here?
Answer: < 20 nM

Question: And the Kd (Kv1.2)?
Answer: < 20 nM

Question: What about the Kd (Kv1.6) of the same substance?
Answer: < 20 nM
